A word on the Kd: it is the concentration at which binding is half-saturated. A high value points to lower affinity. One may read the IC50 as the concentration that gives 50% inhibition.

For assay [1], the target named is HLA-A*01:01. The assay can be described thus: IEDB peptide-MHC binding, purified MHC/direct/fluorescence; filed as Kd, often an IC50 or EC50 that approximates it; ≥ and ≤ were set here for values at or beyond the usual limits of such assays.
The target of assay [2] is HLA-A*02:01. Described as above.
For assay [3], the target named is HLA-A*03:01. Described as above.
Assay [4] has as its target HLA-A*11:01. Described as above.
The target in assay [5] is HLA-A*24:03. Described as above.
Assay [6] deals with HLA-A*26:01. The description is as above.
In assay [7] the target is HLA-A*30:01. The description is as above.
For assay [8], the target named is HLA-A*31:01. Described as above.
For assay [9], the target named is HLA-A*69:01. The description is as above.
Assay [10] deals with HLA-B*07:02. The assay is described as above.
The target in assay [11] is HLA-B*08:01. The description is as above.
The target of assay [12] is HLA-B*15:01. The description is as above.
Assay [13] deals with HLA-B*27:05. Described as above.
Assay [14] has as its target HLA-B*35:01. The description is as above.
Assay [15] concerns the target HLA-B*40:01. The description is as above.
Assay [16] concerns the target HLA-B*44:02. Described as above.
Assay [17] deals with HLA-B*58:01. Described as above.
Assay [18] deals with HLA-A*24:02. Kind of assay: IEDB peptide-MHC binding, purified MHC/competitive/fluorescence; ≥ and ≤ were set here for values at or beyond the usual limits of such assays. To be noted: source organism: Zaire ebolavirus.
Assay [19] has as its target HLA-B*15:01. The assay is described as above.
The target in assay [20] is HLA-A*01:01. Kind of assay: IEDB peptide-MHC binding, purified MHC/competitive/fluorescence; filed as Kd, often an IC50 or EC50 that approximates it; ≥ and ≤ were set here for values at or beyond the usual limits of such assays. To be noted: source organism: Encephalitozoon cuniculi GB-M1.
Assay [21] has as its target HLA-A*30:01. Described as above. To be noted: source organism: Encephalitozoon cuniculi GB-M1.
Assay [22] deals with HLA-A*02:01. Kind of assay: IEDB peptide-MHC binding, purified MHC/competitive/fluorescence; ≥ and ≤ were set here for values at or beyond the usual limits of such assays.
In assay [23] the target is HLA-A*23:01. The assay can be described thus: IEDB peptide-MHC binding, purified MHC/direct/fluorescence; filed as Kd, often an IC50 or EC50 that approximates it; ≥ and ≤ were set here for values at or beyond the usual limits of such assays. The note with it: source organism: Orthohantavirus hantanense.
Assay [24] has as its target HLA-B*15:17. The assay is described as above. To be noted: source organism: Campylobacter jejuni RM1221.
The target in assay [25] is HLA-B*57:01. Described as above. To be noted: source organism: Campylobacter jejuni RM1221.
For assay [26], the target named is HLA-C*15:02. The assay is described as above. The note with it: source organism: Campylobacter jejuni subsp. jejuni NCTC 11168 = ATCC 700819.
The target in assay [27] is HLA-A*03:01. The assay can be described thus: IEDB peptide-MHC binding, purified MHC/competitive/fluorescence; ≥ and ≤ were set here for values at or beyond the usual limits of such assays. The note with it: source organism: Zaire ebolavirus.
Assay [28] deals with HLA-A*11:01. The assay is described as above. The note with it: source organism: Zaire ebolavirus.
The mark [29] stands for this setting: source organism: Vibrio vulnificus.
Where [30] appears, read: source organism: Pseudomonas savastanoi.
Setting [31] is: source organism: Pseudomonas aeruginosa.
[32] abbreviates: source organism: Corynebacterium glutamicum.
[33] abbreviates: source organism: Zaire ebolavirus.
The mark [34] stands for this setting: source organism: Giardia lamblia ATCC 50803.
Setting [35] is: source organism: Vaccinia virus.
The mark [36] stands for this setting: source organism: Campylobacter jejuni RM1221.
[37] abbreviates: source organism: Campylobacter jejuni.
The mark [38] stands for this setting: source organism: Vibrio cholerae.
The mark [39] stands for this setting: source organism: Vibrio parahaemolyticus.

A value given as a limit tells only on which side of the number the result lay.

Consider KVMALPIPH, for which the dissociation constant (Kd) in [1] (setting [29]) is no less than 20 µM; in assay [2] (setting [29]) it was no less than 20 µM; in assay [3] (setting [29]), 0.174 µM; in [4] (setting [29]), 0.0247 µM; in assay [5] (setting [29]), no less than 20 µM; in [6] (setting [29]), no less than 20 µM. Further, the dissociation constant Kd in assay [7] (setting [29]) is 5.28 µM; in [8] (setting [29]) it was 0.136 µM; in assay [9] (setting [29]) it was no less than 20 µM; in [10] (setting [29]) it was 9.25 µM; in [11] (setting [29]) it was no less than 20 µM; in assay [12] (setting [29]) it was 0.452 µM. For the same sequence, the dissociation constant (Kd) in assay [13] (setting [29]) was no less than 20 µM; in assay [14] (setting [29]), 0.374 µM; in assay [15] (setting [29]), no less than 20 µM; in assay [16] (setting [29]), no less than 20 µM; in [17] (setting [29]), no less than 20 µM.

For TYYPQVVLG, the Kd was no less than 20 µM in assay [1] (setting [30]); no less than 20 µM in assay [2] (setting [30]); no less than 20 µM in [3] (setting [30]); 5.12 µM in assay [4] (setting [31]); 3.2 µM in assay [5] (setting [31]); no less than 10 µM in assay [7] (setting [31]). Besides, the Kd in assay [9] (setting [30]), in assay [10] (setting [30]), in assay [11] (setting [30]), in [12] (setting [31]), in [13] (setting [30]) and in assay [15] (setting [30]) was no less than 20 µM each time. Further, in assay [17] (setting [31]), the dissociation constant (Kd) amounted to 6.85 µM.

Consider YELLRYNEY, for which the Kd in assay [1] (setting [32]), in [2] (setting [32]), in [3] (setting [32]), in [4] (setting [32]), in assay [5] (setting [32]) and in assay [6] (setting [32]) was no less than 20 µM throughout. Also, the Kd in assay [7] (setting [32]) is no less than 20 µM; in [8] (setting [32]), no less than 20 µM; in assay [9] (setting [32]) it was no less than 20 µM; in assay [11] (setting [32]), no less than 20 µM; in [12] (setting [32]), 0.443 µM; in assay [13] (setting [32]), no less than 20 µM. Further, the Kd is 0.777 µM in [14] (setting [32]), 14.3 µM in assay [15] (setting [32]) and no less than 20 µM in assay [17] (setting [32]).

For the sequence RATTELRTF, the values for the IC50 in assay [18] and in [19] (setting [33]) were 0.6 µM and 55.5 µM, respectively.

Take GGRKLKLTK: the equilibrium dissociation constant (Kd) in assay [20] was no less than 20 µM; in [21], 0.246 µM.

Regarding RTRFFCIPK, the equilibrium dissociation constant (Kd) in assay [1] (setting [34]) was no less than 20 µM; in [2] (setting [34]), 17.4 µM; in [3] (setting [34]), 0.0273 µM; in [4] (setting [34]), 0.0209 µM; in assay [5] (setting [34]) it was no less than 20 µM; in [6] (setting [34]) it was no less than 20 µM. The Kd in assay [7] (setting [34]) is 0.00137 µM; in assay [8] (setting [34]), 0.0182 µM; in assay [9] (setting [34]), no less than 20 µM; in assay [10] (setting [34]) it was no less than 20 µM; in assay [11] (setting [34]), no less than 20 µM; in [12] (setting [34]), no less than 10 µM. Further, the Kd in assay [13] (setting [34]) is 0.321 µM; in assay [15] (setting [34]), no less than 20 µM; in assay [16] (setting [34]), no less than 20 µM; in assay [17] (setting [34]) it was no less than 20 µM.

Regarding QLIIQAFEA, the figures for the IC50 in assay [22] (setting [33]) and in [19] (setting [33]) were 0.884 µM and no less than 720 µM, respectively.

Turning to FFQNETQKY, the Kd in [23] was 1.4 µM; in assay [5] (source organism: Orthohantavirus hantanense) it was 1.3 µM.

Consider SQYVDDANL, for which the results for the IC50 in [22] (setting [35]) and in assay [19] (setting [35]) were 45.4 µM and no less than 404 µM, respectively.

With KSNEKNMDF, the dissociation constant Kd in [2] (setting [36]), in assay [3] (setting [36]), in assay [4] (setting [36]), in assay [6] (setting [36]), in assay [8] (setting [36]) and in assay [9] (setting [36]) was no less than 20 µM throughout. In addition, the equilibrium dissociation constant (Kd) in assay [10] (setting [36]) was no less than 20 µM; in assay [11] (setting [36]), no less than 20 µM; in [12] (setting [37]) it was 0.215 µM; in [24], 0.0073 µM; in assay [13] (setting [36]), no less than 20 µM; in assay [14] (setting [37]), 3.16 µM. For the same sequence, the Kd in assay [15] (setting [36]) was no less than 20 µM; in assay [16] (setting [36]) it was no less than 20 µM; in assay [25], 0.467 µM; in assay [17] (setting [37]), 0.063 µM; in assay [26] it was 0.15 µM.

For the sequence IPISGRITA, the dissociation constant Kd in assay [1] (setting [38]), in assay [2] (setting [38]), in assay [3] (setting [38]), in [4] (setting [38]), in assay [5] (setting [38]) and in assay [6] (setting [38]) was no less than 20 µM throughout. Moreover, the dissociation constant (Kd) in assay [7] (setting [38]) is no less than 20 µM; in assay [8] (setting [38]) it was no less than 20 µM; in assay [9] (setting [38]) it was no less than 20 µM; in [10] (setting [38]), 0.0244 µM; in assay [11] (setting [38]), no less than 20 µM; in assay [12] (setting [38]), no less than 20 µM. For the same sequence, the dissociation constant Kd is no less than 20 µM in assay [13] (setting [38]); 0.0172 µM in assay [14] (setting [38]); no less than 20 µM in assay [15] (setting [38]); no less than 20 µM in assay [16] (setting [38]); no less than 20 µM in assay [17] (setting [38]).

In the case of AIPYFYKGK, the Kd was no less than 20 µM in [1] (setting [34]); no less than 20 µM in [2] (setting [34]); no less than 20 µM in assay [3] (setting [34]); 0.308 µM in assay [4] (setting [34]); 13 µM in assay [5] (setting [34]); no less than 20 µM in assay [6] (setting [34]). Besides, the Kd in assay [7] (setting [34]) was 12.5 µM; in assay [9] (setting [34]), no less than 20 µM; in [10] (setting [34]), no less than 20 µM; in assay [11] (setting [34]), no less than 20 µM; in [12] (setting [34]) it was no less than 20 µM; in [13] (setting [34]), no less than 20 µM. For the same sequence, the equilibrium dissociation constant (Kd) in assay [15] (setting [34]), in assay [16] (setting [34]) and in [17] (setting [34]) was no less than 20 µM in each case.

As to AALSSLAKH, the half-maximal inhibitory concentration (IC50) in assay [22] (setting [33]) is no less than 98.5 µM; in assay [27], no less than 92.7 µM; in assay [28] it was 9.21 µM; in assay [19] (setting [33]) it was no less than 156 µM.

As to RTHTLRDAK, the Kd is no less than 20 µM in [1] (setting [39]); no less than 20 µM in assay [2] (setting [39]); 0.93 µM in [3] (setting [39]); 0.0535 µM in assay [4] (setting [39]); 0.472 µM in assay [5] (setting [39]); no less than 20 µM in assay [6] (setting [39]). The dissociation constant (Kd) in [7] (setting [39]) was 0.0209 µM; in assay [8] (setting [39]), 0.134 µM; in assay [9] (setting [39]) it was no less than 20 µM; in assay [10] (setting [39]), no less than 20 µM; in assay [11] (setting [39]), no less than 20 µM; in assay [13] (setting [39]) it was no less than 20 µM. In addition, the Kd in [15] (setting [39]) and in assay [17] (setting [39]) was no less than 20 µM in each case.

The values are drawn from the Immune Epitope Database (IEDB).
